{"source": "paper PMC6949295", "about": "(2020)", "assay_in_all_cases": "co-immunoprecipitation (IP: HA, blot: Flag)", "conditions_in_all_cases": "293T cells; parent: 1.00", "key": {"HA-Exo70(S59D)": {"molecular_target": "HA-Exo70(S59D)"}, "HA-Exo70(S47D/S59D)": {"molecular_target": "HA-Exo70(S47D/S59D)"}, "HA-Exo70(S47D)": {"molecular_target": "HA-Exo70(S47D)"}}, "data": [{"substance": "Exo70 wild type, HA-tagged and Flag-tagged copies co-expressed (from UniProt O54922) S59D", "values": [{"measurement": "response (relative band intensity)", "setting": "HA-Exo70(S59D)", "value": 1}]}, {"substance": "Exo70 wild type, HA-tagged and Flag-tagged copies co-expressed (from UniProt O54922) S47D; S59D", "values": [{"measurement": "response (relative band intensity)", "setting": "HA-Exo70(S47D/S59D)", "value": 0.96}]}, {"substance": "Exo70 wild type, HA-tagged and Flag-tagged copies co-expressed (from UniProt O54922) S47D", "values": [{"measurement": "response (relative band intensity)", "setting": "HA-Exo70(S47D)", "value": 1}]}]}
